Substrate in the series: CC[C@H](C)[C@H](NC(=O)[C@H](Cc1cnc[nH]1)NC(=O)[C@H](Cc1ccccc1)NC(=O)OCc1ccccc1)C(=O)O
The experiment in a line: Binding affinity to angiotensin-converting enzyme (unknown origin) assessed as Km. Particulars: Homo sapiens.

B1: Angiotensin-converting enzyme (Homo sapiens), P12821 (protein)
chain: MGAASGRRGPGLLLPLPLLLLLPPQPALALDPGLQPGNFSADEAGAQLFAQSYNSSAEQVLFQSVAASWAHDTNITAENARRQEEAALLSQEFAEAWGQKAKELYEPIWQNFTDPQLRRIIGAVRTLGSANLPLAKRQQYNALLSNMSRIYSTAKVCLPNKTATCWSLDPDLTNILASSRSYAMLLFAWEGWHNAAGIPLKPLYEDFTALSNEAYKQDGFTDTGAYWRSWYNSPTFEDDLEHLYQQLEPLYLNLHAFVRRALHRRYGDRYINLRGPIPAHLLGDMWAQSWENIYDMVVPFPDKPNLDVTSTMLQQGWNATHMFRVAEEFFTSLELSPMPPEFWEGSMLEKPADGREVVCHASAWDFYNRKDFRIKQCTRVTMDQLSTVHHEMGHIQYYLQYKDLPVSLRRGANPGFHEAIGDVLALSVSTPEHLHKIGLLDRVTNDTESDINYLLKMALEKIAFLPFGYLVDQWRWGVFSGRTPPSRYNFDWWYLRTKYQGICPPVTRNETHFDAGAKFHVPNVTPYIRYFVSFVLQFQFHEALCKEAGYEGPLHQCDIYRSTKAGAKLRKVLQAGSSRPWQEVLKDMVGLDALDAQPLLKYFQPVTQWLQEQNQQNGEVLGWPEYQWHPPLPDNYPEGIDLVTDEAEASKFVEEYDRTSQVVWNEYAEANWNYNTNITTETSKILLQKNMQIANHTLKYGTQARKFDVNQLQNTTIKRIIKKVQDLERAALPAQELEEYNKILLDMETTYSVATVCHPNGSCLQLEPDLTNVMATSRKYEDLLWAWEGWRDKAGRAILQFYPKYVELINQAARLNGYVDAGDSWRSMYETPSLEQDLERLFQELQPLYLNLHAYVRRALHRHYGAQHINLEGPIPAHLLGNMWAQTWSNIYDLVVPFPSAPSMDTTEAMLKQGWTPRRMFKEADDFFTSLGLLPVPPEFWNKSMLEKPTDGREVVCHASAWDFYNGKDFRIKQCTTVNLEDLVVAHHEMGHIQYFMQYKDLPVALREGANPGFHEAIGDVLALSVSTPKHLHSLNLLSSEGGSDEHDINFLMKMALDKIAFIPFSYLVDQWRWRVFDGSITKENYNQEWWSLRLKYQGLCPPVPRTQGDFDPGAKFHIPSSVPYIRYFVSFIIQFQFHEALCQAAGHTGPLHKCDIYQSKEAGQRLATAMKLGFSRPWPEAMQLITGQPNMSASAMLSYFKPLLDWLRTENELHGEKLGWPQYNWTPNSARSEGPLPDSGRVSFLGLDLDAQQARVGQWLLLFLGIALLVATLGLSQRLFSIRHRSLHRHSHGPQFGSEVELRHS
Broadly, the Km is the substrate concentration at which the rate is half of its maximum. For B1, the Michaelis-Menten constant (Km) was 0.01 µM.

These data come from ChEMBL document CHEMBL5257037, “Side Chain Cyclized Aromatic Amino Acids: Great Tools as Local Constraints in Peptide and Peptidomimetic Design” (J Med Chem, 2016).
